Measurements reported in publication PMC10397247.
Each block holds one binder with its values, some of them ahead of it.

What was measured:
Test in all cases: two-hybrid library CCmax;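 also: natural log of median RNA to DNA barcode read ratio; higher means stronger binding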
4H464-AA = target: T1, 4H464-AA; conditions: mean of both orientations
T1 chain: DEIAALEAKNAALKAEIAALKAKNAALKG

4H3915-AA = target: T2, 4H3915-AA; conditions: mean of both orientations
T2 chain: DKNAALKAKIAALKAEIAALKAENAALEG

4H3449-AA = target: T3, 4H3449-AA; conditions: mean of both orientations
T3 chain: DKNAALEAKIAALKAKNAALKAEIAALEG

4H3049-AA = target: T4, 4H3049-AA; conditions: mean of both orientations
T4 chain: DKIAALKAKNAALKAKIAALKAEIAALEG

4H3777-AA = target: T5, 4H3777-AA; conditions: mean of both orientations
T5 chain: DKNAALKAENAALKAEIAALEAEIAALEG

4H2947-AA = target: T6, 4H2947-AA; conditions: mean of both orientations
T6 chain: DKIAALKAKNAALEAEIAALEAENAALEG

4H3414-AA = target: T7, 4H3414-AA; conditions: mean of both orientations
T7 chain: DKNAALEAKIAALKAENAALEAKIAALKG

4H3629-AA = target: T8, 4H3629-AA; conditions: mean of both orientations
T8 chain: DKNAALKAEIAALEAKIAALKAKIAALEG

4H3595-AA = target: T9, 4H3595-AA; conditions: mean of both orientations
T9 chain: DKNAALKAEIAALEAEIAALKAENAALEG

4H341-AA = target: T10, 4H341-AA; conditions: mean of both orientations
T10 chain: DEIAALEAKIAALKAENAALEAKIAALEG

4H2903-AA = target: T11, 4H2903-AA
T11 chain: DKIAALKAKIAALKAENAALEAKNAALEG

4H3974-AA = target: T12, 4H3974-AA; conditions: mean of both orientations
T12 chain: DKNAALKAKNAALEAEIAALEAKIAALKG

4H3129-AA = target: T13, 4H3129-AA; conditions: mean of both orientations
T13 chain: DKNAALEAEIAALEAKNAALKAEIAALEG

4H3094-AA = target: T14, 4H3094-AA; conditions: mean of both orientations
T14 chain: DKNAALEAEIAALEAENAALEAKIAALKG

4H446-AA = target: T15, 4H446-AA; conditions: mean of both orientations
T15 chain: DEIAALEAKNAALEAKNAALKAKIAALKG

4H483-AA = target: T16, 4H483-AA; conditions: mean of both orientations
T16 chain: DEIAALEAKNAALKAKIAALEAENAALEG

4H2961-AA = target: T17, 4H2961-AA; conditions: mean of both orientations
T17 chain: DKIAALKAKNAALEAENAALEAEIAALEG

4H432-AA = target: T18, 4H432-AA; conditions: mean of both orientations
T18 chain: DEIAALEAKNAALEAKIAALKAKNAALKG

4H324-AA = target: T19, 4H324-AA; conditions: mean of both orientations
T19 chain: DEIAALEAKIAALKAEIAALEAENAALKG

4H63-AA = target: T20, 4H63-AA; conditions: mean of both orientations
T20 chain: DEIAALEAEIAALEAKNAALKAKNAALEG

4H380-AA = target: T21, 4H380-AA; conditions: mean of both orientations
T21 chain: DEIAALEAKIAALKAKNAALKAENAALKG

4H3619-AA = target: T22, 4H3619-AA; conditions: mean of both orientations
T22 chain: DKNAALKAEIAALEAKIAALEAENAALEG

4H3969-AA = target: T23, 4H3969-AA; conditions: mean of both orientations
T23 chain: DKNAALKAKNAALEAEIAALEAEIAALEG

4H3939-AA = target: T24, 4H3939-AA; conditions: mean of both orientations
T24 chain: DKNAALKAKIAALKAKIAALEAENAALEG

4H3782-AA = target: T25, 4H3782-AA; conditions: mean of both orientations
T25 chain: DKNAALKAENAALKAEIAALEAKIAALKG

4H662-AA = target: T26, 4H662-AA; conditions: mean of both orientations
T26 chain: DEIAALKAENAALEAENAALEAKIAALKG

4H3664-AA = target: T27, 4H3664-AA; conditions: mean of both orientations
T27 chain: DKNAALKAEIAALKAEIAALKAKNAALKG

4H4033-AA = target: T28, 4H4033-AA; conditions: mean of both orientations
T28 chain: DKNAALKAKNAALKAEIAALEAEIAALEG

4H3922-AA = target: T29, 4H3922-AA; conditions: mean of both orientations
T29 chain: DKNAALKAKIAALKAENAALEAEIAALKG

4H3605-AA = target: T30, 4H3605-AA
T30 chain: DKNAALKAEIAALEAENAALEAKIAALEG

4H481-AA = target: T31, 4H481-AA; conditions: mean of both orientations
T31 chain: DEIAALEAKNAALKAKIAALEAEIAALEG

4H55-AA = target: T32, 4H55-AA
T32 chain: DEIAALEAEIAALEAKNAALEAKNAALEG

4H3625-AA = target: T33, 4H3625-AA; conditions: mean of both orientations
T33 chain: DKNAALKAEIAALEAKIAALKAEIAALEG

4H369-AA = target: T34, 4H369-AA; conditions: mean of both orientations
T34 chain: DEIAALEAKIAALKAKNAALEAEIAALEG

4H2907-AA = target: T35, 4H2907-AA; conditions: mean of both orientations
T35 chain: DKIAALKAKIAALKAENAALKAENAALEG

4H32-AA = target: T36, 4H32-AA; conditions: mean of both orientations
T36 chain: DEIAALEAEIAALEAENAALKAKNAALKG

4H384-AA = target: T37, 4H384-AA; conditions: mean of both orientations
T37 chain: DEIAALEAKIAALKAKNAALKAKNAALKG

4H3056-AA = target: T38, 4H3056-AA; conditions: mean of both orientations
T38 chain: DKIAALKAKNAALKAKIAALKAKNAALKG

4H3378-AA = target: T39, 4H3378-AA; conditions: mean of both orientations
T39 chain: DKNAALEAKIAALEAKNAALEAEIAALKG

4H3588-AA = target: T40, 4H3588-AA; conditions: mean of both orientations
T40 chain: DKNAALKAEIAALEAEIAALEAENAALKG

4H982-AA = target: T41, 4H982-AA; conditions: mean of both orientations
T41 chain: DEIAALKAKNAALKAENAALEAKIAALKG

4H3697-AA = target: T42, 4H3697-AA
T42 chain: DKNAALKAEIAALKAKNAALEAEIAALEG

4H340-AA = target: T43, 4H340-AA; conditions: mean of both orientations
T43 chain: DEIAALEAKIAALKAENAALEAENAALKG

4H3413-AA = target: T44, 4H3413-AA; conditions: mean of both orientations
T44 chain: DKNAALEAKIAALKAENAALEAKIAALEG

4H3606-AA = target: T45, 4H3606-AA; conditions: mean of both orientations
T45 chain: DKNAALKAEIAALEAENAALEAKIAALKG

4H3162-AA = target: T46, 4H3162-AA; conditions: mean of both orientations
T46 chain: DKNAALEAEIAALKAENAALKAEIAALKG

4H697-AA = target: T47, 4H697-AA; conditions: mean of both orientations
T47 chain: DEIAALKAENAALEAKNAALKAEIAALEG

4H3133-AA = target: T48, 4H3133-AA; conditions: mean of both orientations
T48 chain: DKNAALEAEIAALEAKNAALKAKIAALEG

4H3718-AA = target: T49, 4H3718-AA; conditions: mean of both orientations
T49 chain: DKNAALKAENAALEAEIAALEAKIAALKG

4H3631-AA = target: T50, 4H3631-AA; conditions: mean of both orientations
T50 chain: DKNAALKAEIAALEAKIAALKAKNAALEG

4H2620-AA = target: T51, 4H2620-AA
T51 chain: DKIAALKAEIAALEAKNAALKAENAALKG

4H3865-AA = target: T52, 4H3865-AA; conditions: mean of both orientations
T52 chain: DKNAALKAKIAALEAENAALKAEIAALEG

4H2648-AA = target: T53, 4H2648-AA; conditions: mean of both orientations
T53 chain: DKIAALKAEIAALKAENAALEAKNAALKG

4H510-AA = target: T54, 4H510-AA; conditions: mean of both orientations
T54 chain: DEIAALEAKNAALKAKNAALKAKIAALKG

4H451-AA = target: T55, 4H451-AA; conditions: mean of both orientations
T55 chain: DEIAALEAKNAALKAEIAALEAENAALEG

4H_BCR = target: T56, 4H_BCR; conditions: mean of both orientations
T56 chain: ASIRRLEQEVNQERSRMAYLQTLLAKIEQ

O11-AA = target: T57, O11-AA; conditions: mean of both orientations
T57 chain: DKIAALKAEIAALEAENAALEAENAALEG

4H43-AA = target: T58, 4H43-AA; conditions: mean of both orientations
T58 chain: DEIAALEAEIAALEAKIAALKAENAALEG

GCN2_T = target: GCN2_T
4H_APH = target: T59, 4H_APH; conditions: mean of both orientations
T59 chain: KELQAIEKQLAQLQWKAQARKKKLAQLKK

4H4038-AA = target: T60, 4H4038-AA; conditions: mean of both orientations
T60 chain: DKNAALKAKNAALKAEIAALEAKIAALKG

4H_GCN4 = target: 4H_GCN4
O14-AA = target: T61, O14-AA; conditions: mean of both orientations
T61 chain: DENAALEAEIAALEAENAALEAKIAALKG

O13-AA = target: T62, O13-AA; conditions: mean of both orientations
T62 chain: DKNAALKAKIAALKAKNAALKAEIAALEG

4H3905-AA = target: T63, 4H3905-AA
T63 chain: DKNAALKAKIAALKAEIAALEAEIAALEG

4H_GCN4, sequence (chain, as listed by the source): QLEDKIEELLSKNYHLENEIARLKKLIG

interaction score (4H464-AA): -1.44
interaction score (4H3915-AA): -1.48
interaction score (4H3449-AA): -1.8
interaction score (4H3049-AA): -1.81
interaction score (4H3777-AA): -1.22
interaction score (4H2947-AA): -1.62
interaction score (4H3414-AA): -1.72
interaction score (4H3629-AA): -0.902
interaction score (4H3595-AA): -0.655
interaction score (4H341-AA): -0.593
interaction score (4H2903-AA): -1.28
interaction score (4H3974-AA): -0.747
interaction score (4H3129-AA): -0.64
interaction score (4H3094-AA): -0.448
interaction score (4H446-AA): -0.722
interaction score (4H483-AA): -1.33
interaction score (4H2961-AA): -1.88
interaction score (4H432-AA): -1.38
interaction score (4H324-AA): -0.202
interaction score (4H63-AA): 2.45
interaction score (4H380-AA): 0.283
interaction score (4H3619-AA): -0.237
interaction score (4H3969-AA): -0.566
interaction score (4H3939-AA): -1.78
interaction score (4H3782-AA): -1.31
Binder: DKIAALKAKIAALKAENAALEAKNAALEG [4H2903-AA]

interaction score (4H662-AA): -1.77
interaction score (4H3664-AA): -1.67
interaction score (4H4033-AA): -1.31
interaction score (4H3922-AA): -0.251
interaction score (4H3605-AA): -1.34
interaction score (4H481-AA): 0.557
interaction score (4H55-AA): -1.29
interaction score (4H3625-AA): -0.874
interaction score (4H369-AA): 1.77
Binder: DKNAALKAEIAALEAENAALEAKIAALEG [4H3605-AA]

interaction score (4H2907-AA): 1.23
interaction score (4H32-AA): 1.05
interaction score (4H384-AA): 0.949
interaction score (4H3056-AA): -1.79
interaction score (4H3378-AA): -1.66
interaction score (4H3588-AA): 0.147
interaction score (4H982-AA): -0.887
interaction score (4H3697-AA): -1.64
interaction score (4H340-AA): 2.42
interaction score (4H3413-AA): -0.901
interaction score (4H3606-AA): -0.861
interaction score (4H3162-AA): -1.82
interaction score (4H697-AA): -1.54
interaction score (4H3133-AA): -1.58
interaction score (4H3718-AA): -0.835
interaction score (4H3631-AA): -0.556
interaction score (4H2620-AA): 0.586
interaction score (4H3865-AA): -1.61
interaction score (4H2648-AA): 1.77
Binder: DKIAALKAEIAALEAKNAALKAENAALKG [4H2620-AA]

interaction score (4H510-AA): -1.37
interaction score (4H451-AA): -1.34
interaction score (4H_BCR): -1.61
interaction score (O11-AA): -1.04
interaction score (4H43-AA): 0.782
interaction score (GCN2_T): -1.53
interaction score (4H_APH): -1.84
interaction score (4H4038-AA): -0.568
interaction score (4H_GCN4): -1.53
interaction score (O14-AA): 0.881
interaction score (O13-AA): 0.128
interaction score (4H3905-AA): 1.48
Binder: DKNAALKAKIAALKAEIAALEAEIAALEG [4H3905-AA]
